Legend:
[1] = target: Human CD28 expressed on Jurkat T cells (human, UniProt P10747 19-220); experiment: cell-based or functional assay
[2] = target: T1, Biotinylated human PD-1 (AcroBiosystems, reference EP-101) (human, UniProt Q15116 25-167, biotinylated); experiment: competitive ELISA: recombinant human PD-L1 immobilized, antibody mixed with a fixed concentration of biotinylated human PD-1, streptavidin-peroxidase; blocked ligand PD-L1
T1 construct: Kit reagent; called both biotinylated Human PD1 and Biotin-PD-1Fc; also called Biotin-PD-1Fc; not described
T1 sequence (Q15116 25-167): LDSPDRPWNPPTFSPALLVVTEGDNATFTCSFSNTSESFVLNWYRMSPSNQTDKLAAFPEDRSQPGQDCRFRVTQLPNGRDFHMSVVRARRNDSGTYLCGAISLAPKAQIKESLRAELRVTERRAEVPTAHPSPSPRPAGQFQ
Experimental: (A) PD-1 binding ELISA assay. […] Revelation was performed using an anti-human Fc antibody coupled to peroxidase. Colorimetry was determined at 450 nm using TMB substrate. Data were normalized by the condition anti-PD-1*2 or anti-PD-1*1 at 20 nM; considered as 100% of binding for bivalent and monovalent figure respectively. N=2 independent experiments per condition. (B) Antagonist PD-1/PDL1 ELISA assay. […] Revelation was performed with a streptavidin coupled to peroxidase. Colorimetry was determined at 450 nm using TMB substrate. Percentage of antagonist activity was determined by the formula 100-((DO450 nM*100)/DO450 nM No Ab). N=2 independent experiments. (C) CD28 binding MSD assay. […] Revelation was performed with an anti-human Fc antibody coupled to SulfoTag. Electric signal was determined using MSD system. (D) Cis-activity Jurkat T cell-based bioassay. […] IL-2 secretion was quantified in the culture supernatant after 48 hours of stimulation and data were normalized by the condition without antibody. N=2-7 independent experiments.

[3] = target: T2, Recombinant human CD28 (bio-techne, reference 342-CD-200) (human, UniProt P10747 19-152); experiment: SPR (Biacore T200), hCD28 immobilized on CM5, antibody flowed at 0-3000 nM, bivalent model fit
T2 construct: Bought protein; also called hCD28 recombinant protein; human recombinant CD28 protein
Experimental: (§1) hCD28 recombinant protein (bio-techne, reference 342-CD-200) was immobilized to the CM5 sensorship at 20 ug/mL in Na Acetate pH5 in the Biacore T200. […] The antigen-antibody association kinetics was followed for 2 minutes, and the dissociation kinetics was followed for 10 minutes. The association and dissociation curves were fit to a bivalent model.

[4] = target: T2, Recombinant human CD28 (bio-techne, …); experiment: SPR (Biacore T200), hCD28 immobilized on CM5, antibody flowed; monovalent anti-CD28 scFv (Format B1), not the bivalent anti-CD28 antibody
Experimental: as §1

B1: Format B1 anti-PD-1*1/anti-CD28*1 scFv clone 2 (bispecific antibody)
chain 1: not shown
chain 2: PAPELLGGPSVFLFPPKPKDTLMISRTPEVTCVVVDVSHEDPEVKFNWYVDGVEVHNAKTKPREEQYASTYRVVSVLTVLHQDWLNGKEYKCKVSNKALPAPIEKTISKAKGQPREPQVYTLPPCRDELTKNQVSLWCLVKGFYPSDIAVEWESNGQPENNYKTTPPVLDSDGSFFLYSKLTVDKSRWQQGNVFSCSVMHEALHNHYTQKSLSLSPGK
VL: DVVMTQSPLSLPVTLGQPASISCRSSQSLVHANTNTYLEWYQQRPGQSPRLLIYKVSNRFSGVPDRFSGSGSGTDFTLKISRVEAEDVGVYYCFQGTHVPNTFGQGTKLEIK
IL-2 secretion by PD-1 negative Jurkat T cells (cis-activity bioassay, 100 nM), fold versus no antibody [1]: 4 fold

B2: Format B1 anti-PD-1*1/anti-CD28*1 scFv clone 3 (bispecific antibody)
chain 1: not shown
chain 2: B1 chain 2
VL: B1 VL
IL-2 secretion by PD-1 negative Jurkat T cells (cis-activity bioassay, 100 nM), fold versus no antibody [1]: 2 fold

B3: anti-PD-1/anti-CD28 multifunctional molecule Format C1 (bivalent anti-PD-1 antibody fused to an anti-CD28 scFv, clone 1) (bispecific antibody, V domains shown)
VH 1: QIQLVQSGSELKKPGASVKVSCKASGYTFTHYAMNWVRQAPGQGLEWMGWINTNTGEPTYAQGFTGRFVFSLDTSVSTAYLQISSLKAEDTAVYYCAREREPGMDNWGQGTLVTVSS
VL 1: B1 VL
VH 2: QVKLQESGPGLVAPSQSLSITCTVSGFSLTSYGVYWVRQPPGKGLEWLGVIWAGGSTNYNSALMSRLSISKDNSKSQVFLKMNSLQTDDTAMYYCARDHYGSYGDYYAMDYWGQGTTVTVSS
VL 2: DIVLTQSPASLAVSLGQRATISCRASESVEYYDTSLMQWYQQKPGQPPKLLIYAASSVESGVPARFSGSGSGTDFSLNIHPVEEDDIAMYFCQQSRKVPWTFGGGTKLEIK
notes: Full chains not tied to the label in the text
IC50 (read off the curve) [2]: ~1 nM

B4: anti-PD-1/anti-CD28 multifunctional molecule Format B3 (scFv anti-CD28 fused to C-terminal of monovalent anti-PD1, clone 1) (bispecific antibody, V domains shown)
VH 1: B3 VH 1
VL 1: B1 VL
VH 2: B3 VH 2
VL 2: B3 VL 2
IC50 (read off the curve) [2]: ~1 nM

B5: anti-PD-1/anti-CD28 multifunctional molecule Format C5 (scFv anti-CD28 fused to C-terminal of bivalent anti-PD1, clone 1) (bispecific antibody, V domains shown)
VH 1: B3 VH 1
VL 1: B1 VL
VH 2: B3 VH 2
VL 2: B3 VL 2
IC50 (read off the curve) [2]: ~0.3 nM

B6: anti-PD-1/anti-CD28 multifunctional molecule Format C2 (bivalent anti-PD-1 antibody fused to an anti-CD28 scFv, clone 1) (bispecific antibody, V domains shown)
VH 1: B3 VH 1
VL 1: B1 VL
VH 2: B3 VH 2
VL 2: B3 VL 2
notes: See Format C1; full chains not tied to the label in the text
IC50 (read off the curve) [2]: ~2 nM

B7: Anti PD-1*1/anti CD28*1 scFv Format B1 (anti-PD-1 clone 1 / anti-CD28 clone 1) (bispecific antibody, V domains shown)
VH 1: B3 VH 1
VL 1: B1 VL
VH 2: B3 VH 2
VL 2: B3 VL 2
notes: Only the variable domains are tied to the molecule by name; also called anti PD-1/anti CD28 (Format B1); anti-PD-1*1/anti-CD28*1 scFv clone 1
IC50 (read off the curve) [2]: ~1 nM
Kd [3]: 5400 nM
koff [3]: 0.0249 s⁻¹
kon [3]: 4620 M⁻¹ s⁻¹
Kd [4]: ~5000 nM

B8: anti-CD28 bivalent clone 1 antibody with no anti-PD-1 valency (antibody, V domains shown)
VH: B3 VH 2
VL: B3 VL 2
notes: also called bivalent anti-CD28 antibody; Bivalent anti-CD28 (positive control)
Kd [3]: 75 nM
koff [3]: 0.000842 s⁻¹
kon [3]: 11200 M⁻¹ s⁻¹

Reference: patent publication US20260049141A1 (OSE IMMUNOTHERAPEUTICS, published 2026)
